Experimental data reported in article PMC8654040 (Nature structural & molecular biology, 2021).
Each block holds one binder with its values, some of them ahead of it.

Columns and labels:
[1] = biological target: T1, FUS SYGQ LC (FUS 1-163), N-terminal low complexity domain (UniProt P35637 1-163); assay: intermolecular NOE NMR of a condensed phase
T1 sequence (looked up): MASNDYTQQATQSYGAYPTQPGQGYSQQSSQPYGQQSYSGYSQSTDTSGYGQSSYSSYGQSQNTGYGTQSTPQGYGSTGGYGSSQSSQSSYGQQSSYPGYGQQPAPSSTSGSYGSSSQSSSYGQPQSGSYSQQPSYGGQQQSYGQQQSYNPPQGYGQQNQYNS

[2] = biological target: T1, FUS SYGQ LC (FUS 1-163), N-terminal low …; assay: co-sedimentation

B1: FUS RGG3 (453-507) (domain or fragment, UniProt P35637 453-507, looked up)
chain: DGPGGGPGGSHMGGNYGDDRRGGRGGYDRGGYRGRGGDRGGFRGGRGGGDRGGFG
binding result [1]: binds

binding result [2]: binds
B2: 488-labeled FUS SYGQ LC (FUS 1-163 labelled with DyLight 488 NHS ester) (domain or fragment, UniProt P35637 1-163, looked up)
chain: T1 sequence (looked up)
modifications: DyLight 488 (NHS ester labelling)
